# Data as given in patent publication US20180105596A1 (ELSALYS BIOTECH, published 2018).
# T1: recombinant His-Strep tagged human Tyro3 extracellular domain (human, UniProt Q06418 41-429)
# T1 construct: also called hTyro3 ECD; full Tyro3 ECD
# T1 sequence: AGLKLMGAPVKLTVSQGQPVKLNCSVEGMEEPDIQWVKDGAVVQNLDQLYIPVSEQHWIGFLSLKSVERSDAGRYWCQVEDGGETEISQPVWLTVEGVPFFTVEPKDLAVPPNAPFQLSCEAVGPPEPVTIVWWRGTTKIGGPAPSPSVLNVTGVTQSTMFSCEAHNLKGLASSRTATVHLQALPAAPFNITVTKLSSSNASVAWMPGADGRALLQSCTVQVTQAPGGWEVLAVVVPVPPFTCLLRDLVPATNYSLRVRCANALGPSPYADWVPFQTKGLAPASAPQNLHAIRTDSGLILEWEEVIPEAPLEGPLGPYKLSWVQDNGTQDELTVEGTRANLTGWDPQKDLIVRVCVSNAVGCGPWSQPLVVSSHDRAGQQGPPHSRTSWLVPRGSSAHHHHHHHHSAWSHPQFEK
# T2: cynomolgus Tyro3 ECD, His-Strep tagged
# T2 construct: also called cyno TYRO3 ECD 8hisstrep
# T2 extracellular domain: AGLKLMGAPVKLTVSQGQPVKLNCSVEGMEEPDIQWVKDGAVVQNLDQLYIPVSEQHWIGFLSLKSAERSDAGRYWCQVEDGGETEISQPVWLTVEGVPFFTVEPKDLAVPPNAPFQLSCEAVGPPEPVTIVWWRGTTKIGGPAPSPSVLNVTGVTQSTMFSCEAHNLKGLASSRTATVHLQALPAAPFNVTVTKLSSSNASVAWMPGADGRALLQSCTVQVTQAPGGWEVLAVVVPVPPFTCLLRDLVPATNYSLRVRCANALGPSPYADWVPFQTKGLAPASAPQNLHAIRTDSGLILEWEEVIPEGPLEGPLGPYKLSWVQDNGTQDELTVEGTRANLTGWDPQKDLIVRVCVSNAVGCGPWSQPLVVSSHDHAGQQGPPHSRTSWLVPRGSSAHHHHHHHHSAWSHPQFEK
# Legend:
# [1] = target: T1, recombinant His-Strep tagged human …; experiment: BLI (Octet K2), 1:1 global fit; analyte concentration of this kobs not given
# Experimental: (§1) Affinity determinations were performed using biolayer interferometry on an Octet K2 instrument (Pall/ForteBio) equipped with anti-Human Kinetics (AHC) disposable fiber-optic biosensor tips. All experiments were conducted at 30° C. in the recommended Fortebio running buffer (PBS with 0.1% (w/v) bovine serum albumin (BSA) and 0.02% (v/v) Tween_20). This buffer was also used for dilution of ligand (here the antibody) and of the analyte (here the extra cellular domain of human Tyro3 protein). Samples in a 96-well microplates (No. Black polypropylene low binding plates, Greiner Bio-One, Frickenhausen, Germany) were agitated at 1000 rpm. […] Between measurements, the anti-human Tyro3 biosensor surfaces were regenerated by exposing them to 3 cycles of 5 sec in 10 mM glycine, pH 1.5, followed by 5 sec in PBS. Association phase was measured for 300 seconds, dissociation phase depending on the interaction for 300 seconds depending on dissociation step. All measurements were corrected for baseline drift using the double reference substraction, that is to say by subtracting a control sensor without ligand exposed to each concentration of the extra cellular domain of human Tyro3 protein and a reference well with ligand submitted to running buffer only. Affinity, association (kon) and dissociation rate constants (koff) for each antibody were calculated applying a 1:1 interaction model fitting global, Rmax linked by sensor) on the ForteBio data analysis software 9.0.
# [2] = target: T1, recombinant His-Strep tagged human …; experiment: BLI (Octet K2), IgG on AHC tips, hTyro3 ECD analyte, 1:1 global fit; KD Error 6,89E-09
# Experimental: as §1, with “All measurements were corrected for baseline drift using the double reference substraction, that is to say by subtracting a control sensor without ligand exposed to each concentration of the extra cellular domain of human Tyro3 protein and a reference well with ligand submitted to running buffer only.” left out
# [3] = target: T1, recombinant His-Strep tagged human …; experiment: BLI (Octet K2), IgG on AHC tips, hTyro3 ECD analyte, 1:1 global fit; kon Error 8,90E+02
# Experimental: as §1, with “All measurements were corrected for baseline drift using the double reference substraction, that is to say by subtracting a control sensor without ligand exposed to each concentration of the extra cellular domain of human Tyro3 protein and a reference well with ligand submitted to running buffer only.” left out
# [4] = target: T1, recombinant His-Strep tagged human …; experiment: BLI (Octet K2), IgG on AHC tips, hTyro3 ECD analyte, 1:1 global fit; kdis(1/s); kdis Error 1,71E-04
# Experimental: as §1, with “All measurements were corrected for baseline drift using the double reference substraction, that is to say by subtracting a control sensor without ligand exposed to each concentration of the extra cellular domain of human Tyro3 protein and a reference well with ligand submitted to running buffer only.” left out
# [5] = target: T2, cynomolgus Tyro3 ECD, His-Strep tagged; experiment: sandwich ELISA, Strep-tagged cynomolgus Tyro3 ECD captured on StrepMAB plate, IgG 3-fold from 3 µg/mL, anti-human IgG1-HRP
# Experimental: [The procedure below names another species; the source lists this species under the same test.] (§2) A double sandwich ELISA was developed. This assay consisted in measuring the binding of the anti-Tyro3 antibodies to be tested on immobilized strep-tagged entire human Tyro3 ECD captured directly on ELISA plate pre-coated with an anti-strep mAb (StrepMAB-Immo coated microplates from IBA biotech). Briefly, the 96 wells of StrepMAB-Immo coated microplate were washed three times with 300 μL of the PBS Tween 0.2% (referred as ELISA washing solution). The capture of an excess of purified strep tagged hTyro3 ECD protein was achieved by a one hour incubation at room temperature. In these experiments, 3 μg of purified protein diluted in PBS, BSA 1% (referred as ELISA diluent solution) were immobilized per well. The wells were washed three times with 300 μL of the washing solution. The non-specific binding sites on the well surface were blocked during 60 min at room temperature with 200 μL/well of blocking solution (PBS, BSA 3%). The wells were washed five times with 300 μL of the washing solution. Then, 100 μl (in duplicates) of the different concentrations of anti-Tyro3 antibodies to be tested diluted in ELISA diluent solution, were added per well and allowed to incubate during 1 hour at room temperature. An Irrelevant control IgG2656 was also added in this experiment. For anti-Tyro3 antibodies in the ScFv format, experiments were performed with 6 concentrations in duplicates (FIG. 3A). For anti-Tyro3 antibodies in the IgG format, experiments were performed with 9 concentrations in duplicates (FIG. 3B). […] For IgGs experiments, starting concentration for first dilution was 3 μg/ml and then dilutions of 3 fold in the ELISA diluent solution were performed. The wells were washed five times with 300 μL of the washing solution. […] The mix was allowed to incubated 60 min at room temperature.
# [6] = target: T1, recombinant His-Strep tagged human …; experiment: BLI (Octet K2), IgG on AHC tips, hTyro3 ECD analyte, 1:1 global fit; KD Error 4,92E-09
# Experimental: as §1, with “All measurements were corrected for baseline drift using the double reference substraction, that is to say by subtracting a control sensor without ligand exposed to each concentration of the extra cellular domain of human Tyro3 protein and a reference well with ligand submitted to running buffer only.” left out
# [7] = target: T1, recombinant His-Strep tagged human …; experiment: BLI (Octet K2), IgG on AHC tips, hTyro3 ECD analyte, 1:1 global fit; kon Error 3,95E+02
# Experimental: as §1, with “All measurements were corrected for baseline drift using the double reference substraction, that is to say by subtracting a control sensor without ligand exposed to each concentration of the extra cellular domain of human Tyro3 protein and a reference well with ligand submitted to running buffer only.” left out
# [8] = target: T1, recombinant His-Strep tagged human …; experiment: BLI (Octet K2), IgG on AHC tips, hTyro3 ECD analyte, 1:1 global fit; kdis(1/s); kdis Error 1,02E-04
# Experimental: as §1, with “All measurements were corrected for baseline drift using the double reference substraction, that is to say by subtracting a control sensor without ligand exposed to each concentration of the extra cellular domain of human Tyro3 protein and a reference well with ligand submitted to running buffer only.” left out
# [9] = target: T1, recombinant His-Strep tagged human …; experiment: sandwich ELISA, Strep-tagged hTyro3 ECD captured on StrepMAB plate, IgG 3-fold from 3 µg/mL, anti-human IgG1-HRP
# Experimental: as §2
# [10] = target: T1, recombinant His-Strep tagged human …; experiment: BLI (Octet K2), IgG on AHC tips, hTyro3 ECD analyte, 1:1 global fit; KD Error 9,30E-10
# Experimental: as §1, with “All measurements were corrected for baseline drift using the double reference substraction, that is to say by subtracting a control sensor without ligand exposed to each concentration of the extra cellular domain of human Tyro3 protein and a reference well with ligand submitted to running buffer only.” left out
# [11] = target: T1, recombinant His-Strep tagged human …; experiment: BLI (Octet K2), IgG on AHC tips, hTyro3 ECD analyte, 1:1 global fit; kon Error 7,98E+02
# Experimental: as §1, with “All measurements were corrected for baseline drift using the double reference substraction, that is to say by subtracting a control sensor without ligand exposed to each concentration of the extra cellular domain of human Tyro3 protein and a reference well with ligand submitted to running buffer only.” left out
# [12] = target: T1, recombinant His-Strep tagged human …; experiment: BLI (Octet K2), IgG on AHC tips, hTyro3 ECD analyte, 1:1 global fit; kdis(1/s); kdis Error 4,43E-05
# Experimental: as §1, with “All measurements were corrected for baseline drift using the double reference substraction, that is to say by subtracting a control sensor without ligand exposed to each concentration of the extra cellular domain of human Tyro3 protein and a reference well with ligand submitted to running buffer only.” left out
kobs [1],Kd [2],kon [3],koff [4],binding result [5],Kd [6],kon [7],koff [8],EC50 (read off the curve) [9],Kd [10],kon [11],koff [12],Binder
0.0203 s⁻¹,308 nM,46900 M⁻¹ s⁻¹,0.0144 s⁻¹,binds,,,,,,,,"IgG2414 (antibody, V domains shown, also called IGX2414) VH: EVQLVQSGADVKKPGASLTISCQASGYTFTDYWISWVRQKPGKGLEWMGQINRHASNTMYGPSFQGHVTISADRSTATAYLQWRSLEASDTAMYYCVRSGGATSGGTIPEYYQHWGPGTLVTVSS VL: SYELTQPPSVSVSPGQTARITCSGDALPKKYAYWYQQKSGQAPVLVIYEDWKRASGIPERFSGSSSGTMATLTISGAQVEDEADYYCYSQERKGNYFVFGGGTKLTVL"
0.014 s⁻¹,,,,binds,307 nM,32300 M⁻¹ s⁻¹,0.00992 s⁻¹,~0.01 µg/mL,,,,"IgG2711 (antibody, V domains shown, also called IGX2711) VH: EVQLVQSGADVKKPGASLTISCQASGYTFTDYWISWVRQKPGKGLEWMGQIRGQHSSTLYGPSFQGHVTISADRSTATAYLQWRSLEASDTAMYYCVRHGASTSGGTIPEYYQHWGPGTLVTVSS VL: SYELTQPPSVSVSPGQTARITCSGDALPKKYAYWYQQKSGQAPVLVIYEDAKRSSGIPERFSGSSSGTMATLTISGAQVEDEADYYCYSLSDSGNYFVFGGGTKLTVL"
0.0102 s⁻¹,,,,binds,,,,~0.02 µg/mL,70.2 nM,76800 M⁻¹ s⁻¹,0.00539 s⁻¹,"IgG2415 (antibody, V domains shown, also called IGX2415) VH: EVQLVQSGADVKKPGASLTISCQASGYTFTDYWISWVRQKPGKGLEWMGQIRGPASATHYGPSFQGHVTISADRSTATAYLQWRSLEASDTAMYYCVRHQQQTSGGTIPEYYQHWGPGTLVTVSS VL: SYELTQPPSVSVSPGQTARITCSGDALPKKYAYWYQQKSGQAPVLVIYEDKKRISGIPERFSGSSSGTMATLTISGAQVEDEADYYCYSTSTGGNYMVFGGGTKLTVL"
